Values joined by “and” are separate entries in the source; they are usually repeats but may differ in a detail not shown here. Identical values can stand only once.
Experiments:
[1] = biological target: Full-length VEX1 tagged with 12xmyc at the C-terminus at the native locus (Trypanosoma brucei); test: SEC; trypanosome extracts (1% CHAPS in PBS, micrococcal nuclease treated) on a BioBasic SEC 1000 column at 5 °C, elution in 0.3% CHAPS in PBS; fractions analysed by anti-myc protein blot; calibrated with thyroglobulin, ferritin, BSA and myoglobin
[2] = biological target: VSG exclusion factor 1 (VEX1), full length, with a C-terminal 12xmyc tag at the native locus (T. brucei); test: native gel or EMSA; blue native PAGE (3-12% gradient, 4 °C) of digitonin lysates treated with micrococcal nuclease, blotted for the myc-tagged protein; with and without knockdown of VEX1, VEX2 or CAF-1
[3] = biological target: VSG exclusion factor 2 (VEX2) with an N-terminal 6x c-myc tag, tagged at the native locus (T. brucei); test: as above

## Full-length VEX1 tagged with 12xmyc at the C-terminus at the native locus (natural protein)
[1]
  stoichiometry N: 2

## VSG exclusion factor 1 (VEX1), full length, with a C-terminal 12xmyc tag at the native locus (natural protein)
[2]
  stoichiometry N: 2

## VSG exclusion factor 2 (VEX2) with an N-terminal 6x c-myc tag, tagged at the native locus (natural protein)
[3]
  stoichiometry N: 2 and 6

Source: publication PMC10713589
